B1: Zinc finger protein Aiolos (Homo sapiens), Q9UKT9 (parent)
chain: MEDIQTNAELKSTQEQSVPAESAAVLNDYSLTKSHEMENVDSGEGPANEDEDIGDDSMKVKDEYSERDENVLKSEPMGNAEEPEIPYSYSREYNEYENIKLERHVVSFDSSRPTSGKMNCDVCGLSCISFNVLMVHKRSHTGERPFQCNQCGASFTQKGNLLRHIKLHTGEKPFKCHLCNYACQRRDALTGHLRTHSVEKPYKCEFCGRSYKQRSSLEEHKERCRTFLQSTDPGDTASAEARHIKAEMGSERALVLDRLASNVAKRKSSMPQKFIGEKRHCFDVNYNSSYMYEKESELIQTRMMDQAINNAISYLGAEALRPLVQTPPAPTSEMVPVISSMYPIALTRAEMSNGAPQELEKKSIHLPEKSVPSERGLSPNNSGHDSTDTDSNHEERQNHIYQQNHMVLSRARNGMPLLKEVPRSYELLKPPPICPRDSVKVINKEGEVMDVYRCDHCRVLFLDYVMFTIHMGCHGFRDPFECNMCGYRSHDRYEFSSHIARGEHRALLK
partner: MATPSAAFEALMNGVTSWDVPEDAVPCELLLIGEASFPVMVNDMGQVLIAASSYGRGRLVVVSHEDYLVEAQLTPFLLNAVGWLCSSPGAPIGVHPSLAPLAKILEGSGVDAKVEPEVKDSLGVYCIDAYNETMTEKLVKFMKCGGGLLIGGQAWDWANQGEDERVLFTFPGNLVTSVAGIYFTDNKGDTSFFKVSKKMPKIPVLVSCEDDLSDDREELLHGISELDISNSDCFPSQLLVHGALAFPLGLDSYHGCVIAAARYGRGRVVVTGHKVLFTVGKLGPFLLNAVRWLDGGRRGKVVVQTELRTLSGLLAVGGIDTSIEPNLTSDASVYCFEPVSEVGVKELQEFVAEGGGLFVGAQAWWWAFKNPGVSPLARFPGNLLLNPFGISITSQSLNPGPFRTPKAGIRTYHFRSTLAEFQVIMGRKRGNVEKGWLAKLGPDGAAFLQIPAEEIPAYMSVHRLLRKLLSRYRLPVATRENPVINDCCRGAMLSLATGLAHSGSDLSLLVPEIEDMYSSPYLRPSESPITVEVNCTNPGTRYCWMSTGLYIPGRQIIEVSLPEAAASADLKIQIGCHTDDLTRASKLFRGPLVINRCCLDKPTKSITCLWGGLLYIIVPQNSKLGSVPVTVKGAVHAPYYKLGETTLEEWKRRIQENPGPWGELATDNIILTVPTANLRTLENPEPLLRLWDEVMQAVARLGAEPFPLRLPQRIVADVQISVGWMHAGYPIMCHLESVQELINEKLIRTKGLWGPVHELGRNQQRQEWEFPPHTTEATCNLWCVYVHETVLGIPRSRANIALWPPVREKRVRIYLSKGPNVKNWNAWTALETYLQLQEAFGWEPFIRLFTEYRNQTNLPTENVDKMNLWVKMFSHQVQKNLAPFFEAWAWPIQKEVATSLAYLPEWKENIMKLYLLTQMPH
B2: Tuftelin-interacting protein 11 (Homo sapiens), Q9UBB9 (parent)
chain: MSLSHLYRDGEGRIDDDDDERENFEITDWDLQNEFNPNRQRHWQTKEEATYGVWAERDSDDERPSFGGKRARDYSAPVNFISAGLKKGAAEEAELEDSDDEEKPVKQDDFPKDFGPRKLKTGGNFKPSQKGFAGGTKSFMDFGSWERHTKGIGQKLLQKMGYVPGRGLGKNAQGIINPIEAKQRKGKGAVGAYGSERTTQSMQDFPVVDSEEEAEEEFQKELSQWRKDPSGSKKKPKYSYKTVEELKAKGRISKKLTAPQKELSQVKVIDMTGREQKVYYSYSQISHKHNVPDDGLPLQSQQLPQSGKEAKAPGFALPELEHNLQLLIDLTEQEIIQNDRQLQYERDMVVNLFHELEKMTEVLDHEERVISNLSKVLEMVEECERRMQPDCSNPLTLDECARIFETLQDKYYEEYRMSDRVDLAVAIVYPLMKEYFKEWDPLKDCTYGTEIISKWKSLLENDQLLSHGGQDLSADAFHRLIWEVWMPFVRNIVTQWQPRNCDPMVDFLDSWVHIIPVWILDNILDQLIFPKLQKEVENWNPLTDTVPIHSWIHPWLPLMQARLEPLYSPIRSKLSSALQKWHPSDSSAKLILQPWKDVFTPGSWEAFMVKNIVPKLGMCLGELVINPHQQHMDAFYWVIDWEGMISVSSLVGLLEKHFFPKWLQVLCSWLSNSPNYEEITKWYLGWKSMFSDQVLAHPSVKDKFNEALDIMNRAVSSNVGAYMQPGARENIAYLTHTERRKDFQYEAMQERREAENMAQRGIGVAASSVPMNFKDLIETKAEEHNIVFMPVIGKRHEGKQLYTFGRIVIYIDRGVVFVQGEKTWVPTSLQSLIDMAK
partner: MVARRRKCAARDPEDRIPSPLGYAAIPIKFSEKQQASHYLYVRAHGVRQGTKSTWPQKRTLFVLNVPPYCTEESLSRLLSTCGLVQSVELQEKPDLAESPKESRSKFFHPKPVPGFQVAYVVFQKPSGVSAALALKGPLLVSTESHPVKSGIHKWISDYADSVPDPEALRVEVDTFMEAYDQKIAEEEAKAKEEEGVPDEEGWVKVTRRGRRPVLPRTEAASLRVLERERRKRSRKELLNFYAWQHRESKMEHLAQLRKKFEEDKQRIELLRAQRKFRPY
B3: Ribosome quality control complex subunit TCF25 (Homo sapiens), Q9BQ70 (parent)
chain: MSRRALRRLRGEQRGQEPLGPGALHFDLRDDDDAEEEGPKRELGVRRPGGAGKEGVRVNNRFELINIDDLEDDPVVNGERSGCALTDAVAPGNKGRGQRGNTESKTDGDDTETVPSEQSHASGKLRKKKKKQKNKKSSTGEASENGLEDIDRILERIEDSTGLNRPGPAPLSSRKHVLYVEHRHLNPDTELKRYFGARAILGEQRPRQRQRVYPKCTWLTTPKSTWPRYSKPGLSMRLLESKKGLSFFAFEHSEEYQQAQHKFLVAVESMEPNNIVVLLQTSPYHVDSLLQLSDACRFQEDQEMARDLVERALYSMECAFHPLFSLTSGACRLDYRRPENRSFYLALYKQMSFLEKRGCPRTALEYCKLILSLEPDEDPLCMLLLIDHLALRARNYEYLIRLFQEWEAHRNLSQLPNFAFSVPLAYFLLSQQTDLPECEQSSARQKASLLIQQALTMFPGVLLPLLESCSVRPDASVSSHRFFGPNAEISQPPALSQLVNLYLGRSHFLWKEPATMSWLEENVHEVLQAVDAGDPAVEACENRRKVLYQRAPRNIHRHVILSEIKEAVAALPPDVTTQSVMGFDPLPPSDTIYSYVRPERLSPISHGNTIALFFRSLLPNYTMEGERPEEGVAGGLNRNQGLNRLMLAVRDMMANFHLNDLEAPHEDDAEGEGEWD
partner: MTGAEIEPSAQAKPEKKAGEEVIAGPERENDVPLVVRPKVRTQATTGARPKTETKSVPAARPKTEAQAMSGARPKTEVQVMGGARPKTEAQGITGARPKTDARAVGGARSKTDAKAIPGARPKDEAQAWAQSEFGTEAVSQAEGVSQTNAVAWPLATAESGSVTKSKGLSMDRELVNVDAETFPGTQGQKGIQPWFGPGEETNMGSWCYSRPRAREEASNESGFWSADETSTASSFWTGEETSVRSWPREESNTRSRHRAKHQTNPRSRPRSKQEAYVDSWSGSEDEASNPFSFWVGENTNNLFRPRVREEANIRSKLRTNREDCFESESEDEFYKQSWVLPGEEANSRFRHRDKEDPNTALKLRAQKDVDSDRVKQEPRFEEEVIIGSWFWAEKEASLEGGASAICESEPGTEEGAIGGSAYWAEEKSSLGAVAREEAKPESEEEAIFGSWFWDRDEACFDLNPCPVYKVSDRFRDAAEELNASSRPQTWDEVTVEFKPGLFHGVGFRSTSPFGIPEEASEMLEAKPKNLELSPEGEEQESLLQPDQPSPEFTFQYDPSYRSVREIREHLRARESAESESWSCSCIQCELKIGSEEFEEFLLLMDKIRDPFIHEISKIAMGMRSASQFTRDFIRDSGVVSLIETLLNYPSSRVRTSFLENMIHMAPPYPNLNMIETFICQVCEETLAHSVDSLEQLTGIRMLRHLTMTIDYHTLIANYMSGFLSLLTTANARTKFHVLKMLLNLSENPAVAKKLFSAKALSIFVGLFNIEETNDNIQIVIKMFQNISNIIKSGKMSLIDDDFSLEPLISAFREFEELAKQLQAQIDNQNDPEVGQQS
B4: Elongin-A2 (Homo sapiens), Q8IYF1 (parent)
chain: MAAGSTTLHAVEKLQVRLATKTEPKKLEKYLQKLSALPMTADILAETGIRKTVKRLRKHQHVGDFARDLAARWKKLVLVDRNTRPGPQDPEESASRQRFGEALQDQEKAWGFPENATAPRSPSHSPEHRRTARRTPPGQQRPHPRSHSREPRAERKCPRIAPADSGRYRASPTRTAPLRMPEGPEPAAPGKQPGRGHTHAAQGGPLLCPGCQGQPQGKAVVSHSKGHKSSRQEKRPLCAQGDWHSPTLIREKSCGACLREETPRMPSWASARDRQPSDFKTDKEGGQAGSGQRVPALEEAPDSHQKRPQHSHSNKKRPSLDGRDPGNGTHGLSPEEKEQLSNDRETQEGKPPTAHLDRTSVSSLSEVEEVDMAEEFEQPTLSCEKYLTYDQLRKQKKKTGKSATTALGDKQRKANESKGTRESWDSAKKLPPVQESQSERLQAAGADSAGPKTVPSHVFSELWDLSEAWMQANYDPLSDSDSMTSQAKPEALSSPKFREEAAFPGRRVNAKMPVYSGSRPACQLQVPTLRQQCAQVLRNNPDALSDVGEVPYWVLEPVLEGWRPDQLYRRKKDNHALVRETDELRRNHCFQDFKEEKPQENKTWREQYLRLPDAPEQRLRVMTTNIRSARGNNPNGREAKMICFKSVAKTPYDTSRRQEKSAGDADPENGEIKPASKPAGSSHTPSSQSSSGGGRDSSSSILRWLPEKRANPCLSSSNEHAAPAAKTRKQAAKKVAPLMAKAIRDYKRRFSRR
partner: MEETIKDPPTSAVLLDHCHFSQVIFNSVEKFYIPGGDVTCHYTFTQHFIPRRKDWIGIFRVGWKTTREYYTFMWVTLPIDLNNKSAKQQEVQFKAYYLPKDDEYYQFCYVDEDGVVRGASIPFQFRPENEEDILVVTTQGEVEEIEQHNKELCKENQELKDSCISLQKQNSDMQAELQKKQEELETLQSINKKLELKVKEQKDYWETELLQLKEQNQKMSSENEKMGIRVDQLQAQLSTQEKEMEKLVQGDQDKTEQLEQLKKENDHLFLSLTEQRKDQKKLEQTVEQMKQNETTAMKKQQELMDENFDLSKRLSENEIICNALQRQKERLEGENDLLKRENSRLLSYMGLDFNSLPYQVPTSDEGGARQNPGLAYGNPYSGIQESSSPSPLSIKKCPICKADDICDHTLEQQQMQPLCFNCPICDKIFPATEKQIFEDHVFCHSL

Variants of: B1
Details: with tcaf1_human TCAF1, Q9Y4C2

| effect of a mutation on the interaction | Variant |
| --- | --- |
| with no effect | N119D |

Variants of: B2
Details: with rrp7a_human RRP7A

| effect of a mutation on the interaction | Variant |
| --- | --- |
| with no effect | M140V |

Variants of: B3
Details: with gasp2_human GPRASP2, Q96D09

| effect of a mutation on the interaction | Variant |
| --- | --- |
| with no effect | V526A |

Variants of: B4
Details: with caco2_human CALCOCO2, Q13137

| effect of a mutation on the interaction | Variant |
| --- | --- |
| disrupting interaction strength | G505R |
| with no effect | R498Q |
| with no effect | R179P |
